Assay results as given in patent publication US9320770B2, “Blood vessel maturation, normalization or stabilization agent and wrinkle preventer/improver” (Shiseido Company, Ltd., priority 2008, dated 2016).

Key:
Format in all cases: cell-based
[1] = system: Normal human umbilical vein endothelial cells and normal human dermal fibroblasts; assay: Evaluation of angiogenesis inhibitory action (angiogenesis kit, lumen formation in the presence of VEGF-A)
Method: Evaluation of Angiogenesis Inhibitory Action
A test was conducted for confirming the angiogenesis inhibitory action of cinnamon bark hot water extract.
Normal human umbilical vein endothelial cells and normal human dermal fibroblasts were co-cultured at a constant ratio using an angiogenesis kit (Kurabo Industries) and prepared in the growth state of the initial stage of lumen formation. The cells were incubated (under conditions of 37° C. and 5% CO2) after adding medium containing a prescribed concentration of cinnamon bark hot water extract in the presence of 10 ng/ml of vascular endothelial cell growth factor A (VEGF-A, Kurabo Industries). […] The stained images obtained from each well were then photographed (FIG. 4), and the images were analyzed using the length and surface area of lumen formation as indicators to evaluate angiogenesis inhibitory action (FIGS. 5 and 6). Image analysis for the length of lumen formation and image analysis for surface area were respectively carried out using angiogenesis quantification software (Kurabo Industries). […] Moreover, angiogenesis inhibitory action in the presence of VGF-A was also evaluated for Ang-1, which is known to have an action that is responsible for vascular stabilization.

[2] = biological target: T1, full-length murine TIE2 (Mus musculus, UniProt Q02858); assay: Tie-2 phosphorylation evaluation in Baf3 cells (BaF/TIE2), Western blotting; conditions: extracts 100 ppm, Angiopoietin-1 0.5 ppm, 10 minutes, FIG. 1 and 2
T1 construct: Ba/F3 transduced with full-length murine TIE2(BaF/TIE2); expressed in transfected cells; host or cells: Ba/F3 (murine pro-B cell line)
Method: Tie-2 Phosphorylation Evaluation Method
(§1) Baf3 cells, a murine pro-B cell line, Ba/F3 transduced with full-length murine TIE2(BaF/TIE2) were incubated in RPMI 1640 medium in the presence of IL-3 (Biosource, PMC0034) and 10% FCS. The cells were plated into a 6-well plate at 2×10^6 cells/1.5 mL/well and incubated overnight while omitting the FCS starting on the day before cell stimulation. DMSO solutions of the aforementioned hot water extract dry residues, Angiopoietin-1 (R&D System, 932-AN) as a positive control or DMSO as a negative control were added to the wells at a final concentration of 100 ppm, 0.5 ppm and 1000 ppm, respectively, followed by incubating for 10 minutes, cooling the cells on ice and washing with chilled PBS. The cells were then ultrasonically homogenized in RIPA buffer containing protease inhibitors (leupeptin, aprotinin, pepstatin, PMSF, Na3VO4). Sample buffer (0.2 M Tris-HCl (pH 6.8), 4% SDS, 20% glycerol, 5 mM EDTA, 0.01% BPB) was then added followed by carrying out SDS-PAGE (7.5% polyacrylamide gel, 12 wells, NPU-7.5L, Atto Corp.) under the conditions indicated below.
Gel: 7.5% acrylamide gel (NPU-7.5L, Atto Corp.)
Phoresis conditions: 40 mA (75 minutes, 2 gel sheets) […]
(§2) Next, Western blotting (20 V, 4° C., overnight) was carried out for transcription to a PVDF membrane. […] Protein bands were detected by chemiluminescence detection (ECL).

[3] = biological target: T2, Tie-2 (Homo sapiens, UniProt Q02763); assay: Tie-2 phosphorylation evaluation in HUVEC; conditions: evaluated in the same manner as Baf3 cells, FIG. 3
T2 construct: Tie-2 phosphorylation was similarly evaluated using normal human umbilical vein endothelial cells (HUVEC); endogenous in cells; host or cells: HUVEC (normal human umbilical vein endothelial cells)
Method: as §1, §2
2) Tie-2 phosphorylation was similarly evaluated using normal human umbilical vein endothelial cells (HUVEC). […]

T1 sequence (Q02858 23-1122): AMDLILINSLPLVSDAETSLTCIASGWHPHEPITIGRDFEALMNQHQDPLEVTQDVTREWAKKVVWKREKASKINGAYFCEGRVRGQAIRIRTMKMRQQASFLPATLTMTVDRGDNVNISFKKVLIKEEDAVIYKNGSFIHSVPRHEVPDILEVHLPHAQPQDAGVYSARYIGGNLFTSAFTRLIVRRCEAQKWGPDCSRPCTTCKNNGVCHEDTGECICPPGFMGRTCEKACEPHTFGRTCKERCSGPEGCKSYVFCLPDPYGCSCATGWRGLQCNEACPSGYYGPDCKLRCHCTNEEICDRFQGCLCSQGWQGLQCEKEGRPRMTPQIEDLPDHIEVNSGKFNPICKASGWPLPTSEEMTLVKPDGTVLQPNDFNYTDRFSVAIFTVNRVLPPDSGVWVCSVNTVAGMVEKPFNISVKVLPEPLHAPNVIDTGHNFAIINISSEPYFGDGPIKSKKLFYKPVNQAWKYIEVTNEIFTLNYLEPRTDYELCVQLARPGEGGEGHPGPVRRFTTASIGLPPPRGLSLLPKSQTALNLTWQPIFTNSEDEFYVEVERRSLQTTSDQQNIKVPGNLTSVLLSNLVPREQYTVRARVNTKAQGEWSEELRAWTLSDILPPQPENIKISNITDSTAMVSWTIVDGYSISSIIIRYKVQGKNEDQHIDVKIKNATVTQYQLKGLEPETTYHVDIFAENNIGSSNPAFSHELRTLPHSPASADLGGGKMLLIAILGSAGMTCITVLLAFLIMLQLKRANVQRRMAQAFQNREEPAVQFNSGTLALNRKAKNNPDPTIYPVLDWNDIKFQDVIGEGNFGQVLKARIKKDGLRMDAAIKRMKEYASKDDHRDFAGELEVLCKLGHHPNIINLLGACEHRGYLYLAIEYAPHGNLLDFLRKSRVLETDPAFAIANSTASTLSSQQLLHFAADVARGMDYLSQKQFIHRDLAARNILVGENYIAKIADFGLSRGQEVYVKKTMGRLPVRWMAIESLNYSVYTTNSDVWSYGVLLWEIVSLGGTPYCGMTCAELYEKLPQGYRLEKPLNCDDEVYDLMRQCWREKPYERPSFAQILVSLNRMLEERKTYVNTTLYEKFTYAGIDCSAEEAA
T2 sequence (Q02763 23-1124): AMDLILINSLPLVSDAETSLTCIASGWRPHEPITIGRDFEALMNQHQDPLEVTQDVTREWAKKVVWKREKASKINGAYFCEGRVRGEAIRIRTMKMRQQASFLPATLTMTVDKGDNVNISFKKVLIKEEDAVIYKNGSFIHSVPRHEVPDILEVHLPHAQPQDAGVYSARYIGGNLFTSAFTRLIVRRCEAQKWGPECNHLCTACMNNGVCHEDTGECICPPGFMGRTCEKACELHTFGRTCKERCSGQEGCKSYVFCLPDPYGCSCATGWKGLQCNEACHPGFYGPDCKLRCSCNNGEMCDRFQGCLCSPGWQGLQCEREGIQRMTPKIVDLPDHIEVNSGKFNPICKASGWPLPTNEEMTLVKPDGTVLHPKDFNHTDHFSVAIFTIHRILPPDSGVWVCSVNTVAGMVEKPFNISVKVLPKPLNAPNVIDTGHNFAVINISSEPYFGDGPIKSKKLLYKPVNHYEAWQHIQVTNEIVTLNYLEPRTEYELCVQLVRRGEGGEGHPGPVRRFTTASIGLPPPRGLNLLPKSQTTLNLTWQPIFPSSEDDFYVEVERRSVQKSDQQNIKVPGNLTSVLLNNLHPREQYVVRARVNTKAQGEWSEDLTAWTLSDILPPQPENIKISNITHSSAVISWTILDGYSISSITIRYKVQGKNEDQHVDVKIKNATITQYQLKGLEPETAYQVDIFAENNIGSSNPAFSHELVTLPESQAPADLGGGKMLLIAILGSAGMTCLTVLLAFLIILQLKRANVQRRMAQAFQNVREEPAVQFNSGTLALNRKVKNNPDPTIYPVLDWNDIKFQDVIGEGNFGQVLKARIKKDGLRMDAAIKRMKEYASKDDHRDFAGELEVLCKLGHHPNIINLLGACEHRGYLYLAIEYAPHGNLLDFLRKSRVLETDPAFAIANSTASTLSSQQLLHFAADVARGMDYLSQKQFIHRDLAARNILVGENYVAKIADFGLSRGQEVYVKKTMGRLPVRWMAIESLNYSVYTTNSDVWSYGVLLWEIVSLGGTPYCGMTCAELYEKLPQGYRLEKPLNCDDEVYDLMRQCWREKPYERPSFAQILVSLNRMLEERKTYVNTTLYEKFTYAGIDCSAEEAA

Row | Molecule | lumen formation (stained image) ([1]; cultured with VEGF-A 10 ng/ml, FIG. 4, cinnamon bark extract particularly at 300 ppm) | Tie-2 phosphorylation [2] | angiogenesis inhibitory action (length and surface area of lumen formation) ([1]; angiogenesis induced by VEGF-A 10 ng/ml, FIGS. 5 and 6, cinnamon bark extract 10 to 300 ppm) | Tie-2 phosphorylation [3]
1 | Cc1ccc(C(=O)Nc2ccc(S(=O)(=O)O)c3cc(S(=O)(=O)O)cc(S(=O)(=O)O)c23)cc1NC(=O)c1cccc(NC(=O)Nc2cccc(C(=O)Nc3cc(C(=O)Nc4ccc(S(=O)(=O)O)c5cc(S(=O)(=O)O)cc(S(=O)(=O)O)c45)ccc3C)c2)c1 [Suramin, reference compound] | lumen formation was determined to be inhibited | – | – | –
2 | Ang-1: Angiopoietin-1 (R&D System, 932-AN), positive control known to activate Tie-2 (protein, UniProt Q15389 16-498, looked up) Angiopoietin-1: HIGCSNQRRSPENSGRRYNRIQHGQCAYTFILPEHDGNCRESTTDQYNTNALQRDAPHVEPDFSSQKLQHLEHVMENYTQWLQKLENYIVENMKSEMAQIQQNAVQNHTATMLEIGTSLLSQTAEQTRKLTDVETQVLNQTSRLEIQLLENSLSTYKLEKQLLQQTNEILKIHEKNSLLEHKILEMEGKHKEELDTLKEEKENLQGLVTRQTYIIQELEKQLNRATTNNSVLQKQQLELMDTVHNLVNLCTKEGVLLKGGKREEEKPFRDCADVYQAGFNKSGIYTIYINNMPEPKKVFCNMDVNGGGWTVIQHREDGSLDFQRGWKEYKMGFGNPSGEYWLGNEFIFAITSQRQYMLRIELMDWEGNRAYSQYDRFHIGNEKQNYRLYLKGHTGTAGKQSSLILHGADFSTKDADNDNCMCKCALMLTGGWWFDACGPSNLNGMFYTAGQNHGKLNGIKWHYFKGPSYSLRSTTMMIRPLDF | – | phosphorylation of Tie-2 | did not have angiogenesis inhibitory action | phosphorylation of Tie-2
